The values that follow come from article PMC11626150 (Proceedings of the National Academy of Sciences of the …, 2024).

Changes are numbered by the printed parent chain. Names may count otherwise.

Common to all, as to test: ELISA
In one assay the target is HEV genotype 4 E2(IV) (Hepatitis E virus genotype 4, swine …, UniProt D3VV84, strain).
Assay [1] addresses T1, HEV genotype 1 E2(I) dimer protein (hepatitis E virus genotype 1 (human HEV), UniProt P29326).
Assay [2] deals with T1, HEV genotype 1 E2(I) dimer protein. This is another data set of the same source.
Assay [3] concerns the target Other eight antigen mutants (E2 mutants preincubated with 8C11).

B1: neutralizing monoclonal antibody 8C11 (antibody, V domains shown)
VH: QVTLKESGPGILQPSQTLSLTCSFSGFSLSTSGMGVGWIRQPSGKGLEWLAHIWWDDVKRYSPALKSRLTISKDTSSSQLFLKIASVDTADTATYYCARIKSVITTGDYALDYWGQGTSVAVSS
VL: DIQMTQSPASLSVSVGETVTITCRASEIIYSNLAWYQQKQGKSPQLLVYSATNLAEGVPSRFSGSGSGTQYSLKINSLQSEDFGSYYCQHFWGNPWTFGGGTKLEIK
For the molecule B1, the binding result with HEV genotype 4 E2(IV) is given as “binds”. Also, in assay [1], the ET50 amounted to 172000 dilution fold and the “ET50 (after a non-related mAb)” value was 188000 dilution fold.

B2: 8C11 mAb mutant S67A (heavy chain) (antibody, V domains shown)
VH: B1 VH with S67A
VL: B1 VL
For the molecule B2, the binding result in assay [2] is recorded as “binds”.

B3: 8C11 mAb mutant K66A (heavy chain) (antibody, V domains shown)
VH: B1 VH with K66A
VL: B1 VL
As for B3, the binding result in assay [2] is “binds”.

B4: 8C11 mAb mutant D88A (heavy chain) (antibody, V domains shown)
VH: B1 VH with D88A
VL: B1 VL
Turning to B4, the binding result in assay [2] is given as “binds”.

B5: neutralizing monoclonal antibody 8H3 (antibody, V domains shown)
VH: QVQLKESGPGLVAPSQSLSITCTVSGFSLIGYGVNWVRQPPEKGLEWLGMIWGDGSTDYNSALKSRLSITKDNSKSQVFLKMNSLQTDDTARYYCAMGVRPDPFDYWGQGTLVTVSA
VL: NIMMTQSPSSLAVSAGEKVTMSCKSSQSVLYSSNQKNYLAWYQQKPGQSPKLLIYWASARESGVPDRFTGSGSGTDFTLTINSVQTEDLAVYYCHQYLSSYTFGGGTKLEIK
As to B5, the fold increase in synergy (8H3 binding with 8C11 pre-bound) in assay [3] worked out at 10 fold. Also, the binding result with HEV genotype 4 E2(IV) is “binds”. In assay [1], the ET50 worked out at 4660 dilution fold and the “ET50 (after a non-related mAb, anti-HPV mAb A12A3)” value was determined as 3030 dilution fold.
